T1: VEGF (Homo sapiens, UniProt P15692)
T1 construct: purchased R&D Systems
T1 sequence (P15692 27-191 isoform P15692-4): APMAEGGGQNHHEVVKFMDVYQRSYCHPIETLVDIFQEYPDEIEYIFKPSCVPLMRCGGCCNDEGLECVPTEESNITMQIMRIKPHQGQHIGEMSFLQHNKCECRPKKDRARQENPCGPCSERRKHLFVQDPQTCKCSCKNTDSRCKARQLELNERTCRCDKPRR

B1: h3t33fc: IGFBP3 with IGFBP3 linker deletion 1-Fc, SEQ ID NO: 8 (protein)
chain: MSEVPVARVWLVLLLLTVQVGVTAGGASSAGLGPVVRCEPCDARALAQCAPPPAVCAELVREPGCGCCLTCALSEGQPCGIYTERCGSGLRCQPSPDEARPLQALLDGRGLCVNASAVSKGHAKDSQRYKVDYESQSTDTQNFSSESKRETEYGPCRREMEDTLNHLKFLNVLSPRGVHIPNCDKKGFYKKKQCRPSKGRKRGFCWCVDKYGQPLPGYTTKGKEDVHCYSMQSKVECPPCPAPPVAGPSVFLFPPKPKDQLMISRTPEVTCVVVDVSHEDPEVKFNWYVDGVEVHNAKTKPREEQYNSTYRVVSVLTVLHQDWLNGKEYKCKVSNKGLPSSIEKTISKAKGQPREPQVYTLPPSREEMTKNQVSLTCLVKGFYPSDIAVEWESNGQPENNYKTTPPVLDSDGSFFLYSKLTVDKSRWQQGNVFSCSVMHEGLHNHYTQKSLSLSPGK

Experiments:
VEGF [1] = molecular target: T1, VEGF; experiment: In vitro proliferation stimulated by VEGF (Table 8); type: cell-based
Protocol: (§1) For the proliferation assay, cells except for HUVEC were seeded at a density of 1,000 to 6,000 in 96 wells in an assay buffer of DMEM/F12 plus 0.2% BSA and 10 ug/ml transferrin. Chemical inhibitors were added after 16-20 hours after plating; IGF-1 or other growth factors or test chimeras in assay buffer were added at the time of plating or 16-20 hours after plating. 5,000 HUVEC ells were plated in poly-L-lysine coated 96 wells in M199 with 1%/FBS and HEPES. After 3 to 4 days of culture, growth was determined by incubating cells with Alamar blue for 4 to 6 hours and then the fluorescence (RFU) at 544/590 nm was read. For long term proliferation assays, cells were plated in the growth media with 5% or 10% FBS at densities of 500 to 10,000 cells per cm^2 growth area and grown for 7 to 21 days. Inhibitors and effectors were added 1-4 days after plating. Cells were exposed to cisplatin or gemcitabine for two days. Medium was renewed twice weekly. At completion, cells were fixed and then stained with Giemsa.
The BP3-VEGF-trap-fc (including the IGFBP3 domains, the VEGFR1 domain 2 and VEGFR2 domain 3 (VEGF-trap (22)), and human immunoglobulin Fc region) broadened the binding to include VEGF-A, VEGF-B, and placental growth factor (PIGF). This BP3-VEGF-trap chimera could inhibit the proliferation stimulated by IGF-1, IGF-2, neuregulin, PDGF-BB, HGF, bFGF, VEGF-A, and PIGF (see, Table 8).

fibroblasts = experiment: Proliferation induced by PDGF BB in fibroblasts (Table 8); type: cell-based
Protocol: as §1
(§2) The BP3-fc construct inhibited the proliferation of cancer cells that had been stimulated by IGF-1, IGF-2, neuregulin, HGF, and bFGF.

cancer cells = experiment: In vitro proliferation of cancer cells stimulated by growth factors (Table 8); type: cell-based
Protocol: as §1, §2

TGF-α = molecular target: T2, TGF-α (Homo sapiens, UniProt P01135); experiment: Biacore binding to TGF-α; conditions: Table 5
T2 construct: purchased R&D Sciences or SinoBiologicals
T2 sequence (P01135 40-89 limits assumed): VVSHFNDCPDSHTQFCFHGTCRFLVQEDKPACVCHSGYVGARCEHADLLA
Protocol: (§3) Biacore binding was performed at David Myszka's laboratory at the University of Utah or at the Genomic Research Center at Academia Sinica. Surfaces of binding protein chimera were made via chemical immobilization on a CM4 chip using standard amine coupling chemistry. […] Excess surface carboxyl activated sites on all four flow cells was blocked using the doubly positively charged species ethylenediamine. Binding experiments (but not immobilizations) in HBS-P (10 mM HEPES pH 7.4, 150 mM NaCl, 0.05% P20), The HBS-P was supplemented with BSA at 0.2 mg/mL, or HBS-P was supplemented with 500 mM NaCl (650 mM NaCl, final concentration). Analytes were also reconstituted in the corresponding buffer. All experiments were performed at 25° C. 1/150 dilutions of phosphoric acid were used to regenerate IGFBP3-Fc surfaces and a sequence of 3 M MgCl2 followed by 5 M GuCl was used to regenerate surfaces immobilized with growth factor. Dissociation constants reported below used immobilized binding protein unless noted. Differences between binding constants may be expected between growth factor immobilization and chimera immobilization.

VEGF [2] = molecular target: T1, VEGF; experiment: Biacore binding to VEGF; conditions: Table 5; the kd is very low and difficult to measure
Protocol: as §3

hep3B cells = experiment: hep3B proliferation assay; type: cell-based, human
Outline: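 Cells seeded at 1,000 to 6,000 per well in DMEM/F12 with 0.2% BSA and 10 ug/ml transferrin. Inhibitors added 16-20 h after plating; IGF-1 or other growth factors at plating or 16-20 h later. After 3 to 4 days, growth read by Alamar blue fluorescence at 544/590 nm after 4 to 6 h.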

[3] = tested on: MCF-7 breast cancer cells; experiment: MCF-7 proliferation assay; type: cell-based; conditions: FIG. 5
Protocol: (§4) MCF-7 cells (a breast cancer cell line) were maintained in MEM (GIBCO) plus insulin and NEAA and 10% FBS (Hyclone).
as §1
We next examined the effect of 56662 (BP3/Fc) on the proliferation induced by growth factors that interacted with the IGFBP3. The proliferation of MCF-7 breast cancer cells was induced in serum-free medium by individual growth factors like IGF-1, IGF-2, EGF, TGF-a, Nrgbx, b-FGF, and amphiregulin (FIG. 1).

HUVEC cells = experiment: HUVEC proliferation assay; type: cell-based
Protocol: as §4, §1
Growth factor synergism can also be observed in the proliferation of HUVEC cells.

Molecule	inhibition of proliferation stimulated by VEGF (VEGF [1])	inhibition of proliferation stimulated by PDGF BB (fibroblasts)	inhibition of proliferation stimulated by HGF (cancer cells)	inhibition of proliferation stimulated by IGF-1 (cancer cells)	inhibition of proliferation stimulated by IGF-2 (cancer cells)	inhibition of proliferation stimulated by bFGF (cancer cells)	inhibition of proliferation stimulated by nrgbx (cancer cells)	Dissociation Constants, TGF-α (TGF-α)	Dissociation Constants, VEGF (VEGF [2])	increase of inhibitory activity of erlotinib (hep3B cells; 100 nM chimera h3t33Fc, hep3B)	inhibition of hep3B cells treated with erlotinib (hep3B cells; combination with erlotinib, FIG. 15, FIG. 16A)	inhibition of IGF-1-induced proliferation of MCF-7, compared to 56662 and chimera B [3]	inhibition of VEGF-induced proliferation of HUVEC cells (HUVEC cells; FIG. 6, FIG. 13)	inhibition of HUVEC proliferation induced by IGF, bFGF, HGF or a combination (HUVEC cells; FIG. 13)
VEGF-trap: the VEGFR1 domain 2 and VEGFR2 domain 3 (VEGF-trap (22)) [reference compound]	inh	no	no	no	no	no	no							
B1								no binding	no binding	about 100 fold	synergistically inhibited	a smaller EC50 and a higher maximal inhibition	did not inhibit	inhibited

From patent US11254722B2, “Recombinant proteins and uses thereof” (ACADEMIA SINICA, priority 2017, dated 2022)
